# Experimental data taken from patent US20130157929A1, “GLUCAGON ANALOGUES” (ZEALAND PHARMA A/S, published 2013).
# Starred links: 1 amine or outer side, 2 acyl side, 3 side chain; linkers in the order of their positions; H or OH if unused. Non-standard residues stand in square brackets, D forms with d. Groups on a side chain read outwards from the residue. *: point of attachment. γGlu = O=C(O)[C@H](CCC(=O)[*:2])N[*:1]; Palmitoyl = CCCCCCCCCCCCCCCC(=O)*; hPhe = N[C@@H](CCc1ccccc1)C(=O)O; Aib = CC(C)(N)C(=O)O
# B1: Compound 15 (peptide)
# peptide: H-H[Aib]WGTFTSDYSKYLDSK([γGlu-Palmitoyl])AAHDFVEWLLSA-NH2
# SMILES: CCCCCCCCCCCCCCCC(=O)N[C@@H](CCC(=O)NCCCC[C@H](NC(=O)[C@H](CO)NC(=O)[C@H](CC(=O)O)NC(=O)[C@H](CC(C)C)NC(=O)[C@H](Cc1ccc(O)cc1)NC(=O)[C@H](CCCCN)NC(=O)[C@H](CO)NC(=O)[C@H](Cc1ccc(O)cc1)NC(=O)[C@H](CC(=O)O)NC(=O)[C@H](CO)NC(=O)[C@@H](NC(=O)[C@H](Cc1ccccc1)NC(=O)[C@@H](NC(=O)CNC(=O)[C@H](Cc1c[nH]c2ccccc12)NC(=O)C(C)(C)NC(=O)[C@@H](N)Cc1c[nH]cn1)[C@@H](C)O)[C@@H](C)O)C(=O)N[C@@H](C)C(=O)N[C@@H](C)C(=O)N[C@@H](Cc1c[nH]cn1)C(=O)N[C@@H](CC(=O)O)C(=O)N[C@@H](Cc1ccccc1)C(=O)N[C@H](C(=O)N[C@@H](CCC(=O)O)C(=O)N[C@@H](Cc1c[nH]c2ccccc12)C(=O)N[C@@H](CC(C)C)C(=O)N[C@@H](CC(C)C)C(=O)N[C@@H](CO)C(=O)N[C@@H](C)C(N)=O)C(C)C)C(=O)O
# B2: Compound 14 (peptide)
# peptide: H-H[Aib][hPhe]GTFTSDYSKYLDSK([γGlu-Palmitoyl])AAHDFVEWLLSA-NH2
# SMILES: CCCCCCCCCCCCCCCC(=O)N[C@@H](CCC(=O)NCCCC[C@H](NC(=O)[C@H](CO)NC(=O)[C@H](CC(=O)O)NC(=O)[C@H](CC(C)C)NC(=O)[C@H](Cc1ccc(O)cc1)NC(=O)[C@H](CCCCN)NC(=O)[C@H](CO)NC(=O)[C@H](Cc1ccc(O)cc1)NC(=O)[C@H](CC(=O)O)NC(=O)[C@H](CO)NC(=O)[C@@H](NC(=O)[C@H](Cc1ccccc1)NC(=O)[C@@H](NC(=O)CNC(=O)[C@H](CCc1ccccc1)NC(=O)C(C)(C)NC(=O)[C@@H](N)Cc1c[nH]cn1)[C@@H](C)O)[C@@H](C)O)C(=O)N[C@@H](C)C(=O)N[C@@H](C)C(=O)N[C@@H](Cc1c[nH]cn1)C(=O)N[C@@H](CC(=O)O)C(=O)N[C@@H](Cc1ccccc1)C(=O)N[C@H](C(=O)N[C@@H](CCC(=O)O)C(=O)N[C@@H](Cc1c[nH]c2ccccc12)C(=O)N[C@@H](CC(C)C)C(=O)N[C@@H](CC(C)C)C(=O)N[C@@H](CO)C(=O)N[C@@H](C)C(N)=O)C(C)C)C(=O)O
# B3: Compound 13 (peptide)
# peptide: H-H[Aib]LGTFTSDYSKYLDSK([γGlu-Palmitoyl])AAHDFVEWLLSA-NH2
# SMILES: CCCCCCCCCCCCCCCC(=O)N[C@@H](CCC(=O)NCCCC[C@H](NC(=O)[C@H](CO)NC(=O)[C@H](CC(=O)O)NC(=O)[C@H](CC(C)C)NC(=O)[C@H](Cc1ccc(O)cc1)NC(=O)[C@H](CCCCN)NC(=O)[C@H](CO)NC(=O)[C@H](Cc1ccc(O)cc1)NC(=O)[C@H](CC(=O)O)NC(=O)[C@H](CO)NC(=O)[C@@H](NC(=O)[C@H](Cc1ccccc1)NC(=O)[C@@H](NC(=O)CNC(=O)[C@H](CC(C)C)NC(=O)C(C)(C)NC(=O)[C@@H](N)Cc1c[nH]cn1)[C@@H](C)O)[C@@H](C)O)C(=O)N[C@@H](C)C(=O)N[C@@H](C)C(=O)N[C@@H](Cc1c[nH]cn1)C(=O)N[C@@H](CC(=O)O)C(=O)N[C@@H](Cc1ccccc1)C(=O)N[C@H](C(=O)N[C@@H](CCC(=O)O)C(=O)N[C@@H](Cc1c[nH]c2ccccc12)C(=O)N[C@@H](CC(C)C)C(=O)N[C@@H](CC(C)C)C(=O)N[C@@H](CO)C(=O)N[C@@H](C)C(N)=O)C(C)C)C(=O)O
# Target: human glucagon receptor (glucagon-R) (human, UniProt P47871)
# Experiment: cell-based or functional assay
row,Binder,"EC50 (nM) GluR, cAMP formation [nM]"
1,B1,43
2,B2,8.9
3,B3,11

# Target: human glucagon-like peptide 1 receptor (GLP-1R) (human, UniProt P43220)
# Experiment: cell-based or functional assay
row,Binder,"EC50 (nM) GLP-1R, cAMP formation [nM]"
1,B1,5.8
2,B2,3.5
3,B3,0.28
